Patent US20160208274

Target: fibrin (formed in the agarose plate from fibrinogen and thrombin)

Protein	fibrin plate assay (fibrin degradation; lytic area on the fibrin plate)
recombinant Desmodus rotundus salivary plasminogen activator alpha1 (DSPAα1) from transgenic T3 tobacco seeds, with C-terminal 6xHis tag and KDEL (protein) AYGVACKDEITQMTYRRQESWLRPEVRSKRVEHCQCDRGQARCHTVPVNSCSEPRCFNGGTCWQAVYFSDFVCQCPAGYTGKRCEVDTRATCYEGQGVTYRGTWSTAESRVECINWNSSLLTRRTYNGRMPDAFNLGLGNHNYCRNPNGAPKPWCYVIKAGKFTSESCSVPVCSKATCGLRKYKEPQLHSTGGLFTDITSHPWQAAIFAQNRRSSGERFLCGGILISSCWVLTAAHCFQESYLPDQLKVVLGRTYRVKPGEEEQTFKVKKYIVHKEFDDDTYNNDIALLQLKSDSPQCAQESDSVRAICLPEANLQLPDWTECELSGYGKHKSSSPFYSEQLKEGHVRLYPSSRCAPKFLFNKTVTNNMLCAGDTRSGEIYPNVHDACQGDSGGPLVCMNDNHMTLLGIISWGVGCGEKDVPGVYTKVTNYLGWIRDNMHLHHHHHHKDEL	recombinant t-PA from T1 seeds and DSPAα1 from T3 homologous seeds can degrade fibrin
recombinant human tissue plasminogen activator (t-PA) from transgenic T1 tobacco seeds, with C-terminal 6xHis tag and KDEL (protein) SYQVICRDEKTQMIYQQHQSWLRPVLRSNRVEYCWCNSGRAQCHSVPVKSCSEPRCFNGGTCQQALYFSYFVCQCPEGFAGKCCEIDTRATCYEDQGISYRGTWSTAESGAECTNWNSSALAQKPYSGRRPDAIRLGLGNHNYCRNPDRDSKPWCYVFKAGKYSSEFCSTPACSEGNSDCYFGNGSAYRGTHSLTESGASCLPWNSMILIGKVYTAQNPSAQALGLGKHNYCRNPDGDAKPWCHVLKNRRLTWEYCDVPSCSTCGLRQYSQPQFRIKGGLFADIASHPWQAAIFAKHRRSPGERFLCGGILISSCWILSAAHCFQERFPPHHLTVILGRTYRVVPGEEEQKFEVEKYIVHKEFDDDTYDNDIALLQLKSDSSRCAQESSVVRTVCLPPADLQLPDWTECELSGYGKHEALSPFYSERLKEAHVRLYPSSRCTSQHLLNRTVTDNMLCAGDTRSGGPQANLHDACQGDSGGPLVCLNDGRMTLVGIISWGLGCGQKDVPGVYTKVTNYLDWIRDNMRPHHHHHHKDEL	recombinant t-PA from T1 seeds and DSPAα1 from T3 homologous seeds can degrade fibrin
